# Measurements as given in patent publication WO2015087187A1 (dated 2015).
# Where a chain is given by its changes, count along the chain named.
# T1: recombinant human SOST (rhSOST) (human, UniProt Q9BQB4 24-213)
# T1 sequence: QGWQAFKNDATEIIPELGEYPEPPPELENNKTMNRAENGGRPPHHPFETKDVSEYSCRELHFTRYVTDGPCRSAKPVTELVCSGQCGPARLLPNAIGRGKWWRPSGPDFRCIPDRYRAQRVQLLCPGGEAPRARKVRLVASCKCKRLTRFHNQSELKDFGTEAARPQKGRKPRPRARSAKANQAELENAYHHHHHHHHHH
# B1: DM21 (antibody, V domains shown)
# VH: EVQLLESGGGLVQPGGSLRLSCAASGHTFSDYWMQWVRQAPGKGLEWIGAIYPGDGDTRYNQKFKDRFTISRDNSKNTLYLQMNSLRAEDTAVYYCARSMDYWGQGTLVTVSS
# VL: DIVMTQSPDSLAVSLGERATINCRASKTVDSYGNSFMHWFQQKPGQPPKLLIYHSSNLESGVPDRFSGSGSGTDFTLTISSLQAEDVAVYYCLQTIEDPYTFGQGTKLEIK
# notes: also called mH1/mL2
# B2: DM4 (antibody, human IgG2, kappa, V domains shown)
# VH: B1 VH with I48V
# VL: DIVMTQSPDSLAVSLGERATINCRASKTVDSYGNSFMHWFQQKPGQPPKLLIHHSSNLESGVPDRFSGSGSGTDFTLTISSLQAEDVAVYYCLQTIEFPYTFGQGTKLEIKR
# notes: mAb names lost in this copy; also called mH10/mL13
# B3: DP1 (antibody, human IgG2, kappa, V domains shown)
# VH: EVQLVESGGGLVQPGGSLRLSCAASGFTFSIYAMSWVRQAPGKGLEWVALISGGDTYTYYADSVKGRFTISRDNAKNSLYLQMNSLRAEDTAVYYCARHGYDDFDYWGQGTLVTVSS
# VL: DVVMTQSPLSLPVTLGQPASISCRSSQSLLDNDGETYLNWFQQRPGQSPRRLIYQVSKLDSGVPDRFSGSGSGTDFTLKISRVEAEDVGVYYCWQGTHFPHTFGGGTKVEIKR
# notes: also called pH1/pL1
# B4: DP99 (antibody, V domains shown)
# VH: EVMLAESGGGLVQPGGSLQLSCAASGFTFSIYAMSWVRQTPEKRLEWVATISGGDTYTYYADSVKGRFTISRDNAKNTLYLHMTGLRSEDTALYYCARHGYDDFDYWGLGTTLTVSS
# VL: DVVLTQIPLTLSVTIGQPATISCKSSQSLLDNDGETYLNWLLVRPGQSPKRLIYQVSKLDSGFPERFTGGGSGTDFTLKISRVEAEDLGIYYCWQGTHFPHTFGGGTKLEIK
# notes: also called pH99/pL99
# B5: DM25 (antibody, V domains shown)
# VH: B1 VH with S30T, I48V
# VL: B1 VL with Y53H
# notes: also called mH4/wt
# B6: DM32 (antibody, V domains shown)
# VH: B1 VH with H27F, I48V
# VL: B1 VL
# notes: also called mH11/mL2
# B7: DM34 (antibody, V domains shown)
# VH: B1 VH with H27F, I48V
# VL: B1 VL with F40Y, P99S
# notes: also called mH11/mL19
# B8: DM29 (antibody, V domains shown)
# VH: B1 VH with I48V
# VL: B1 VL
# notes: also called mH10/mL2
# B9: DM28 (antibody, V domains shown)
# VH: B1 VH with S30T, N61A, K63S, F64V, D66G
# VL: B1 VL with Y53H
# notes: also called mH8/wt
# B10: DM26 (antibody, V domains shown)
# VH: B1 VH with S30T, G49S
# VL: B1 VL with Y53H
# notes: also called mH5/wt
# B11: DM33 (antibody, V domains shown)
# VH: B1 VH with H27F, I48V
# VL: B1 VL with F40Y, D98H
# notes: also called mH11/mL15
# B12: DM23 (antibody, V domains shown)
# VH: B1 VH with H27F
# VL: B1 VL with Y53H
# notes: also called mH3/wt
# B13: DM30 (antibody, V domains shown)
# VH: B1 VH with I48V
# VL: B1 VL with F40Y
# notes: also called mH10/mL3
# B14: DM31 (antibody, V domains shown)
# VH: B1 VH with I48V
# VL: B1 VL with F40Y, P99S
# notes: also called mH10/mL19
# B15: DM24 (antibody, V domains shown)
# VH: B1 VH with H27F
# VL: B1 VL
# notes: also called mH3/mL2
# Target: T1, recombinant human SOST (rhSOST)
# Assay: cell-based or functional assay
"EC50, neutralization of rhSOST-mediated inhibition of Wnt-10B luciferase reporter activity in U-2OS-TF-Wnt10B cells","EC50, restoring WNT10b-stimulated luciferase activity suppressed by 1 ug/ml rhSOST in U2OS TOPFlash cells",Binder
5.53 ug/ml (printed 'Mg/ml'),,B1
2.07 ug/ml (printed 'Mg/ml'),,B2
22 ug/ml (printed 'Mg/ml'),,B3
5.95 ug/ml (printed 'Mg/ml'),37000 pM,B4

# Target: T1, recombinant human SOST (rhSOST)
# Assay: SPR Biacore T200, IgG captured via anti-human Fc, rhSOST analyte, 37 C
Kd,koff,kon,Binder
8 pM,7.41e-05 s⁻¹,8.86e+06 M⁻¹ s⁻¹,B1
130 pM,0.000508 s⁻¹,3.91e+06 M⁻¹ s⁻¹,B2
17 pM,0.000101 s⁻¹,5.81e+06 M⁻¹ s⁻¹,B5
54 pM,0.000419 s⁻¹,7.75e+06 M⁻¹ s⁻¹,B6
1650 pM,0.00356 s⁻¹,2.16e+06 M⁻¹ s⁻¹,B7
14 pM,0.000101 s⁻¹,7.41e+06 M⁻¹ s⁻¹,B8
99 pM,0.00035 s⁻¹,3.52e+06 M⁻¹ s⁻¹,B9
53 pM,0.000222 s⁻¹,4.2e+06 M⁻¹ s⁻¹,B10
93 pM,0.000563 s⁻¹,6.03e+06 M⁻¹ s⁻¹,B11
10 pM,0.000134 s⁻¹,1.39e+07 M⁻¹ s⁻¹,B12
45 pM,0.000239 s⁻¹,5.34e+06 M⁻¹ s⁻¹,B13
816 pM,0.00171 s⁻¹,2.1e+06 M⁻¹ s⁻¹,B14
35 pM,0.000239 s⁻¹,6.9e+06 M⁻¹ s⁻¹,B15
3700 pM,0.00667 s⁻¹,1.8e+06 M⁻¹ s⁻¹,B3
103 pM,0.003 s⁻¹,2.9e+07 M⁻¹ s⁻¹,B4
